Laboratory results taken from paper PMC4226739 (The Journal of Cell Biology, 2014).

What was measured:
Experiment in all cases: FRAP in micropatterns
[1] = target: STAT2 fused to tagRFP-T (STAT2-tagRFP) (UniProt P52630 1-851)
[2] = target: STAT2 fused to monomeric EGFP (STAT2-EGFP) (UniProt P52630 1-851)
[3] = target: tyk2 fused to monomeric EGFP (tyk2-EGFP) (UniProt P29597 1-1187)
Sequence of tyk2 fused to monomeric EGFP (tyk2-EGFP) (P29597 whole entry, the tested form may be a part): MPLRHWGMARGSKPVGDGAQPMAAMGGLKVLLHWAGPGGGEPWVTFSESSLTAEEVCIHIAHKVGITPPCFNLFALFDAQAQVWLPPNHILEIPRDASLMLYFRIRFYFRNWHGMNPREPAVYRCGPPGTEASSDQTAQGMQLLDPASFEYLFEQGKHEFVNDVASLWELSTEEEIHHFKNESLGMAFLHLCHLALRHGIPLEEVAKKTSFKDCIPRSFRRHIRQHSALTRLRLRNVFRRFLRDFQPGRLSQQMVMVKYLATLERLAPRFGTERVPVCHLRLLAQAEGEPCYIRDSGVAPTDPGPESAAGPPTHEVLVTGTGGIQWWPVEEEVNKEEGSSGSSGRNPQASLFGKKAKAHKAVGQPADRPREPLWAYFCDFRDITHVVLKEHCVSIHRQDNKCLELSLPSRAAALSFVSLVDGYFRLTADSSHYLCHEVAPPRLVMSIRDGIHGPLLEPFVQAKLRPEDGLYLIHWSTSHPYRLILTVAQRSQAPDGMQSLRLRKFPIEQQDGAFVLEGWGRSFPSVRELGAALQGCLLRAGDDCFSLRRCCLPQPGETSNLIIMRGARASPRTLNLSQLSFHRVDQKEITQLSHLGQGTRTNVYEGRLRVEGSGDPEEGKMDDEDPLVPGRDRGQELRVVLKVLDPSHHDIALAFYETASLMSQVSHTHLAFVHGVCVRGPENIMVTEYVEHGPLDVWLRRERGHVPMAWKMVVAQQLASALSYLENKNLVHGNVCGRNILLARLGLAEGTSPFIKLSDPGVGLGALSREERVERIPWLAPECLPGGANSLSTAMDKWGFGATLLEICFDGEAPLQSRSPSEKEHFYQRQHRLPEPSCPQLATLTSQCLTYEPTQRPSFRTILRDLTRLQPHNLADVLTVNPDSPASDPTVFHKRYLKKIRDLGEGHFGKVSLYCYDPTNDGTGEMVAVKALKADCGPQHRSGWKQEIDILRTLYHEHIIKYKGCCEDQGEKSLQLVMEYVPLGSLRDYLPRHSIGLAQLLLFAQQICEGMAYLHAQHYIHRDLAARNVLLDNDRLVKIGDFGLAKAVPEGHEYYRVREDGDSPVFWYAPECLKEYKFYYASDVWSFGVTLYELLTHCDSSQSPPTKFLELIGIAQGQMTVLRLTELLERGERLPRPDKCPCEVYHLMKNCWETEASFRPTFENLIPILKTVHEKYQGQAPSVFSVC

Sequence of STAT2 fused to tagRFP-T (STAT2-tagRFP) (P52630 whole entry, the tested form may be a part): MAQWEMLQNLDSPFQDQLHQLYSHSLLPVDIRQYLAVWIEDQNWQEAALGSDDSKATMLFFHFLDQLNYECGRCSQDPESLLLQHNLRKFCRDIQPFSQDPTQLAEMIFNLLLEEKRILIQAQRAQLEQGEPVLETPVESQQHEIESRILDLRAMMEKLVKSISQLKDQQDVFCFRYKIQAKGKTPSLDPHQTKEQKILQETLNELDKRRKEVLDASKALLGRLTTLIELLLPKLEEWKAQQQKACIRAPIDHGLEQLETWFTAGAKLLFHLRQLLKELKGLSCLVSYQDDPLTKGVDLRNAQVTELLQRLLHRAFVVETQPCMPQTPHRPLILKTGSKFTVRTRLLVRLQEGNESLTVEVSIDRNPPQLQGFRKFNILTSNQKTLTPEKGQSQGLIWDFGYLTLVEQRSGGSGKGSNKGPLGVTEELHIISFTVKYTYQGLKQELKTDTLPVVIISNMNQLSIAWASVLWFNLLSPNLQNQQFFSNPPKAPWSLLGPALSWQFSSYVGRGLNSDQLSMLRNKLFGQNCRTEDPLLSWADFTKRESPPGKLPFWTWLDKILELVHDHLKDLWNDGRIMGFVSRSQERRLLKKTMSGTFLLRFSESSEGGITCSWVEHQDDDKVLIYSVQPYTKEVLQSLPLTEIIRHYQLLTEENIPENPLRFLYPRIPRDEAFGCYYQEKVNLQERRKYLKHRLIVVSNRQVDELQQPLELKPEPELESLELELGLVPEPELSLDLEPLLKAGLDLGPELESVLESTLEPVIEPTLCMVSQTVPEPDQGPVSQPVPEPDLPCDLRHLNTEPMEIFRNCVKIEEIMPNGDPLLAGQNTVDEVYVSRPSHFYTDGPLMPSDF
Sequence of STAT2 fused to monomeric EGFP (STAT2-EGFP) (P52630 whole entry, the tested form may be a part): as above

| Binder | koff [1] [s⁻¹] | koff [2] [s⁻¹] | koff [3] [s⁻¹] |
| --- | --- | --- | --- |
| HaloTag-IFNAR2 (receptor) ISYDSPDYTDESCTFKISLRNFRSILSWELKNHSIVPTHYTLLYTIMSKPEDLKVVKNCANTTRSFCDLTDEWRSTHEAYVTVLEGFSGNTTLFSCSHNFWLAIDMSFEPPEFEIVGFTNHINVMVKFPSIVEEELQFDLSLVIEEQSEGIVKKHKPEIKGNMSGNFTYIIDKLIPNTNYCVSVYLEHSDEQAVIKSPLKCTLLPPGQESESAESAKIGGIITVFLIALVLTSTIVTLKWIGYICLRNSLPKVLNFHNFLAWPFPNLPPLEAMDMVEVIYINRKKKVWDYNYDDESDSDTEAAPRTSGGGYTMHGLTVRPLGQASATSTESQLIDPESEEEPDLPEVDVELPTMPKDSPQQLELLSGPCERRKSPLQDPFPEEDYSSTEGSGGRITFNVDLNSVFLRVLDDEDSDDLEAPLMLSSHLEEMVDPEDPDNVQSNHLLASGEGTQPTFPSPSSEGLWSEDAPSDQSDTSESDVDLGDGYIMR | 0.015 ± 0.005 | 0.12 ± 0.05 | – |
| IFNAR1 fused to an N-terminal HaloTag (HaloTag-IFNAR1) (receptor) KNLKSPQKVEVDIIDDNFILRWNRSDESVGNVTFSFDYQKTGMDNWIKLSGCQNITSTKCNFSSLKLNVYEEIKLRIRAEKENTSSWYEVDSFTPFRKAQIGPPEVHLEAEDKAIVIHISPGTKDSVMWALDGLSFTYSLVIWKNSSGVEERIENIYSRHKIYKLSPETTYCLKVKAALLTSWKIGVYSPVHCIKTTVENELPPPENIEVSVQNQNYVLKWDYTYANMTFQVQWLHAFLKRNPGNHLYKWKQIPDCENVKTTQCVFPQNVFQKGIYLLRVQASDGNNTSFWSEEIKFDTEIQAFLLPPVFNIRSLSDSFHIYIGAPKQSGNTPVIQDYPLIYEIIFWENTSNAERKIIEKKTDVTVPNLKPLTVYCVKARAHTMDEKLNKSSVFSDAVCEKTKPGNTSKIWLIVGICIALFALPFVIYAAKVFLRCINYVFFPSLKPSSSIDEYFSEQPLKNLLLSTSEEQIEKCFIIENISTIATVEETNQTDEDHKKYSSQTSQDSGNYSNEDESESKTSEELQQDFV | – | – | ~0.0025 |
